Measurements published in article PMC11448365 (Genes to Cells, 2023).

Target: the molecule itself
Assay: mass photometry

B1: Irgb6-WT (wild-type Irgb6) (enzyme, mouse)
chain: MAWASSFDAFFKNFKRESKIISEYDITLIMTYIEENKLQKAVSVIEKVLRDIESAPLHIAVTGETGAGKSTFINTLRGVGHEEKGAAPTGAIETTMKRTPYPHPKLPNVTIWDLPGIGTTNFTPQNYLTEMKFGEYDFFIIISATRFKENDAQLAKAIAQMGMNFYFVRTKIDSDLDNEQKFKPKSFNKEEVLKNIKDYCSNHLQESLDSEPPVFLVSNVDISKYDFPKLETKLLQDLPAHKRHVFSLSLQSLTEATINYKRDSLKQKVFLEAMKAGALATIPLGGMISDILENLDETFNLYRSYFGLDDASLENIAQDLNMSVDDFKVHLRFPHLFAEHNDESLEDKLFKYIKHISSVTGGPVAAVTYYRMAYYLQNLFLDTAANDAIALLNSKALFEKKVGPYISEPPEYWEA
stoichiometry N: 2
